# In PMC2642969 (Molecular cell, 2008):
# Read-outs that look alike come from different tables or passages of the source.
# T1: FLAG-dKDM4A (recombinant, Sf21) (Drosophila melanogaster, UniProt Q9V333 1-495)
# T1 sequence (looked up): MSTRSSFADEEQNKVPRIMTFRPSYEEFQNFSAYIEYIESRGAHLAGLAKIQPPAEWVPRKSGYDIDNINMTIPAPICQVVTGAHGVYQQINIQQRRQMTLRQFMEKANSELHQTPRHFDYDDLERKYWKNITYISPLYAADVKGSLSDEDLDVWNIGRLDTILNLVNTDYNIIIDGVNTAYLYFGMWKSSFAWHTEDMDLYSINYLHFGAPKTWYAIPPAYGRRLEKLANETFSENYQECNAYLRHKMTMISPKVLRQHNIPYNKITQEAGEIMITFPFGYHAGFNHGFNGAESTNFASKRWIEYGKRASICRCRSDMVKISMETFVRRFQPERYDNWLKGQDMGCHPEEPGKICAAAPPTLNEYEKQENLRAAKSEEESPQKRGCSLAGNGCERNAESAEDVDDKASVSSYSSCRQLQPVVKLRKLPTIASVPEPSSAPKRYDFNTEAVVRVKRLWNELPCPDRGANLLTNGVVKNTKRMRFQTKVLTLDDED
# Assays:
# [1] = molecular target: T1, FLAG-dKDM4A (recombinant, Sf21); assay: co-IP
# [2] = molecular target: T1, FLAG-dKDM4A (recombinant, Sf21); assay: co-IP; remark: listed apart in the source
binding result [1],binding result [2],Binder
binds,,"HA-HP1a (recombinant, full-length) (natural protein, Drosophila melanogaster, UniProt P05205 1-206, looked up) MGKKIDNPESSAKVSDAEEEEEEYAVEKIIDRRVRKGKVEYYLKWKGYPETENTWEPENNLDCQDLIQQYEASRKDEEKSAASKKDRPSSSAKAKETQGRASSSTSTASKRKSEEPTAPSGNKSKRTTDAEQDTIPVSGSTGFDRGLEAEKILGASDNNGRLTFLIQFKGVDQAEMVPSSVANEKIPRMVIHFYEERLSWYSDNED"
,binds,"HA-HP1a-V26M (natural protein, Drosophila melanogaster, UniProt P05205 1-206, looked up) MGKKIDNPESSAKVSDAEEEEEEYAMEKIIDRRVRKGKVEYYLKWKGYPETENTWEPENNLDCQDLIQQYEASRKDEEKSAASKKDRPSSSAKAKETQGRASSSTSTASKRKSEEPTAPSGNKSKRTTDAEQDTIPVSGSTGFDRGLEAEKILGASDNNGRLTFLIQFKGVDQAEMVPSSVANEKIPRMVIHFYEERLSWYSDNED"
